Reference: patent publication US20170052184A1 (published 2017)
Numbering of substitutions follows the chain as printed.

T1: HCV bt-151-171 (Peptide 3, HCVc 151-171) (Hepatitis C virus (numbering per HCV-1), biotin (carboxy-terminal per; N-terminal per))
T1 peptide: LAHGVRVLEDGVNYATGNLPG

T2: HCV bt-134-154 (Peptide 1, HCVc 134-154) (Hepatitis C virus (numbering per HCV-1), biotin (carboxy-terminal per; N-terminal per))
T2 peptide: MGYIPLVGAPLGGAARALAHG

T3: HCV bt-141-161 (Peptide 2, HCVc 141-161) (Hepatitis C virus (numbering per HCV-1), biotin (carboxy-terminal per; N-terminal per))
T3 peptide: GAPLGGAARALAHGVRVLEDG

T4: HCV Core1-169 (hepatitis C virus (HCV-1), UniProt P26664 1-169)
T4 sequence: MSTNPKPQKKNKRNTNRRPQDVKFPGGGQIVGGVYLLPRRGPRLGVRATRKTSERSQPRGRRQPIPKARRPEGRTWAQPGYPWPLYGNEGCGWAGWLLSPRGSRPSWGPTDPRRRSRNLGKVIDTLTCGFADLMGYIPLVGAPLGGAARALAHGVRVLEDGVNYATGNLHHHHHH

B1: HCV 208B-515 (antibody, V domains shown)
VH: QVQLQQPGAELVKPGASLKLSCRASGYTFTSYWIHWVKQRPGQGLEWIGEIDPSDSYTNYNQKFKGKATLTVDKSSRAAYMQLSSLTSEDSAVYYCARHYYGVFDSWGQGTKLTVSS
VL: QIVFTQYPAIMSASLGERVTMTCTASSSVTSSYLHWFQQKPGSSPKLWIYSTSNPGSGVPARFSGRGSGTSYSLSISSMEAEDAATYYCLQFHRSPWTFGGGTKLEIRR
B2: HCV 208B-517 (antibody, V domains shown)
VH: QVQLKQSGPGLVQPSQSLSITCTVSGFSLITHGVHWVRQSPGKGLEWLGVIWSGGSTDYNAAFISRLSISKDTSKSQVFLKMSSLQADDTAIYYCARNGGATAFDYWGQGTTLTVSS
VL: DIVMTQSPATLSVTPGDRVSLSCRASQSISDYLHWYQQKSHESPRLLIKYASQSISGIPSRFRGSGSGSHFTLSINSVEPEDVGVYYCQNGHSFPWTFGGGTKLEIKR
B3: HCV 208B-822 (antibody, V domains shown)
VH: QVQLKQSGPGLVQPSQSLSITCTVSGFSLITYGVHWVRQSPGKGLEWLGVIWGGGSTGYNAAFVSRLNITKDNSKSQVFFKMNSLQPDDTAIYYCARNGGATVFDYWGQGTTLTVSS
VL: B2 VL with S28T, R63S
B4: HCV 208B-395 (antibody, V domains shown)
VH: QVQLQQSGAGLAKPGASVKMSCKASGYTFTANKMHWTKQRPGQGLEWIGYIDPSSGYTQYNHKIQDKATLTADTSSSTAYMQLSSLTFEDSAVYYCTNFAYWGQGTLVTVSA
VL: DIVLTQSPATLSVTPGDRVSLSCRASQRIYNYLHWYQQKSHESPRLLIKYASQSISGIPSRFSGSGSGTDFILTINSVETEDFGMYFCQQSNSWPLTFGAGTKLELRR
B5: HCV 208A-207 (antibody, V domains shown)
VH: QGQLQQPGAEFVKPGASLKLSCRASGYTFTSYWIHWVKQRPGQGLEWIGEIDPSDSYINQNQKFRGKATLTVDKSSSTAYMELSGLTSEDSAVYYCARHYYGVLDSWGQGTTLTVSS
VL: B4 VL with I48T
B6: HCV 208B-547 (antibody, V domains shown)
VH: B4 VH with G10E, A31S, T37A, Q59E, H62Q, Q65K, T74K, F88S
VL: EVVLTQSPAITAASLGQKVTITCRASSSVSYMHWYRQKSGTSPQPWIYEISTLASGVPTRFRASGSGTSYSLTISSMEAEDAAIYYCQQWNYPLTFGAGTKLELKR
B7: HCV 208B-826 (antibody, V domains shown)
VH: DVQLVESGGGLVQAGGSRKLSCAASGFPFSSFGMHWVRQAPEKGLEWVASISSRTSKIYYADNLKGRFTISRDNPKNTLFLQMTSLGSEDTAMYYCVRSVFGNSYWFFDVWGAGTTVTVSS
VL: B4 VL with I48T
B8: HCV 208B-793 (antibody, V domains shown)
VH: EVKLVESGGGLVQPGGSLKLSCAASGFTFSSYAMSWVRQTPERRLEWVTYISNGGGSTYYSDTVKGRFTFSRDNAKNTLYLQMSSLKSEDTAMYYCARHGLGRTGFASWGQGTLVTVSA
VL: DIVMTQSHKFMSTSVGDRVSITCKASQDVGTAVAWYQQKPGQSPKLLIYWASTRHTGVPDRFTGSGSGTDFTLTISNVQSEDLADYFCQQYSNYLTFGAGTKLEVKR
B9: HCV 208B-612 (antibody, V domains shown)
VH: EVQLQQSGPELVKPGASVKMSCKASGYRFTSYVMHWVRQKPGQGLEWIGYIDPHNDDTKYSEKFRGKATLTSDKSSTTAYMELSSLTSEDSAVYYCVRYSYDRDYSPMDYWGQGTSVTVSS
VL: QIVLTQSPTLMSASPGEKVTMTCSASSTVTYIYWYQQKPGSSPRLWMYDTFNLVSGVPARFSGSRSGTSYFLTISSMEGEDAATYYCQQYSDSPYTFGGGTKLEIKR
B10: HCV 208A-210 (antibody, V domains shown)
VH: QVQLQQSGPELVKPGASMRISCKASGYTFTSYYVHWIKQRPGQGLEWIGCIYPGDVNTDYNEKFKGKATLTADKSSSTAYMQVSTLTSEDSAIYFCVLYYYGSFAYWGQGTLVTVSA
VL: B6 VL with V2I, K18N, P45L, T52R, L53R, T59A, L104V
B11: HCV 208B-327 (antibody, V domains shown)
VH: EVQLVESGGGLVKPGGSLKLSCAASGFTFSDSYMYWVRQTPDQRLEWVATISDGGSYTFYPDSVKGRFTISRDNAQNNLYLQMSSLKSEDTAMYYCASPHAGYFGWFAYWGRGTLVTVSA
VL: DIVMTQAAFSNPVTPGTSVSISCRSSKSLLHSNGITYLYWYLQKPGQSPQLLIYQMSKIASGVPDRFRSSGSGTDFTLRISRVEAADVGVYYCAQNLELPWTFGGGTKLEIKR
B12: HCV 208B-471 (antibody, V domains shown)
VH: QGQLQQSGPVLVKPGASEILYCKTSGFTFSSTYISWLKQKPGQSLEWIAWIYAGTGATNYNQKFTGKAQLTVDASSNTAYMHFSGLTPEDSAIYYCAISGAGVYWGQGTLVTVSA
VL: DVVMTQTPLSLPVSLGDQASISCRSSQSLLHSNGNTYLEWYLQKPGQSPNLLIYNVSNRFSGVPDRFSGSGSGTDFALKISRVGAEDLGVYYCFQGSHVPLTFGAGTKLELKR
B13: HCV 208B-911 (antibody, V domains shown)
VH: QVHLQQPGAELVRPGVSVKLSCKASGYTFTTYSINWMKQRPGQGLEWIGNIYPSTSHTNYNQKFRDKATMTVDKSSSTAYMQLSSPTSEDSAVYYCTINAYSMDYWGQGTSVTVSS
VL: QIVLTQSPEIMSASPGEKVTITCSASSSVSFMYWFQQKPGTSPKLWIYITSNLASGVPTRFSGSGSGTSYSLTISRMEAEDAATYYCQQRSSFPYTFGGGTKLEMKR
B14: HCV 208B-353 (antibody, V domains shown)
VH: EVQLVESGGDLVKPGGSLKLSCAASGFTFNHYGMSWVRQPPDKRLEWVATISSGGGYTYYPDSVKGRFTISRDNAKDTLSLQMSSLRSGDTAVYYCASLYGSLFAYWGQGTLVTVSA
VL: DIVMTQSQKFMSTTVGDRVRVTCKASQNVGTAVAWYQQKPGQSPKLLIYSASNRYTGVPDRFTGSGSGTDFTLTITNMQSEDLADYFCQQYSTYPLTFGSGAKLEIKR
B15: HCV 208B-672 (antibody, V domains shown)
VH: EVKLVESGGSLVQPGGSLKLSCAASGFNFNTYAMSWVRQTPEKRLEWVAYISNGGGNTYYVDTVKGRFTISRDNAKNTLYLRMSSLKSEDTAMYYCARHGLYWGYSMDYWGQGTSVTVSS
VL: DIQMTQSPSSLSASLGERVSLTCRASQDIGGSINWLQQEPDGTIKRLIYATSSLDSGVPKRFSGSRSGSDYSLTISSLESEDFVDYYCLQYASSPPTFGGGTKLEIKR
B16: HCV 208A-126 (antibody, V domains shown)
VH: QLQQSGPVLVKPGASVMISCKTSGYTFTENAMHWVKQSHGKSLEWIGGVNPNNGDTIFNQKFKGKATLTVDKSSNTAFTELRSLPSEESTVYYCVRRGLDFFDYWGQGTSVTVSS
VL: DIVLTQSPASLAVSLGQRATISCRASQSVSTSRYSYMHWYQQKPGQPPKLLIKYASNLESGVPARFSGSGSGTDFTLNIHPVAEEDTAAYYCQHSWEFPFTFGSGTKLEIKR
B17: HCV 208A-692 (antibody, V domains shown)
VH: QGQMQQSGAELAKPGASVKLSCKTSGFTFSSSYISWLKQKPGQSLEWIAWIFAGTGNTNYNQKFTDKAQLTVDTSSSTAYMQLSSLTTEDSAIYYCAISGTGFTYWGQGTLVTVSA
VL: EVLMTQSPLSLPVSLGDQASISCRSSQSLEHSNGNTYLEWFLQRPGQPPKLLIYKVSSRFSGVPDRFSGSGSGTDFTLKISRVEAEDLGVYYCFQGSHVPFTFGSGTKLAIKR

Molecular target: T1, HCV bt-151-171 (Peptide 3, HCVc 151-171)
Assay: EIA, captured mAb + biotin peptide

| Binder | Reactivity (OD 492 nm) [OD units] |
| --- | --- |
| B1 | 0.06 |
| B2 | 0.7 |
| B3 | 0.07 |
| B4 | 3.69 |
| B5 | 0.08 |
| B6 | 2.9 |
| B7 | 0.08 |
| B8 | 0.09 |
| B9 | 0.15 |
| B10 | 0.05 |
| B11 | 0.49 |
| B12 | 0.08 |
| B13 | 0.71 |
| B14 | 0.07 |
| B15 | 0.1 |

Molecular target: T2, HCV bt-134-154 (Peptide 1, HCVc 134-154)
Assay: EIA, captured mAb + biotin peptide

| Binder | Reactivity (OD 492 nm) [OD units] |
| --- | --- |
| B1 | 0.51 |
| B2 | 0.1 |
| B3 | 0.08 |
| B4 | 0.54 |
| B5 | 1.24 |
| B6 | 0.12 |
| B7 | 0.53 |
| B8 | 0.09 |
| B9 | 3.05 |
| B10 | 0.06 |
| B11 | 0.07 |
| B12 | 1.62 |
| B13 | 0.09 |
| B14 | 0.07 |
| B15 | 0.08 |

Molecular target: T3, HCV bt-141-161 (Peptide 2, HCVc 141-161)
Assay: EIA, captured mAb + biotin peptide

| Binder | Reactivity (OD 492 nm) [OD units] |
| --- | --- |
| B1 | 0.13 |
| B2 | 0.41 |
| B3 | 1.35 |
| B4 | 0.13 |
| B5 | 0.17 |
| B6 | 0.08 |
| B7 | 1.35 |
| B8 | 0.72 |
| B9 | 3.04 |
| B10 | 1.15 |
| B11 | 0.05 |
| B12 | 0.11 |
| B13 | 0.09 |
| B14 | 2.47 |
| B15 | 2.79 |

molecular target: T4, HCV Core1-169; assay: SPR sandwich, capture mAb C11-7

| Binder | expected percent binding [%] |
| --- | --- |
| B16 | 2 |
| B17 | ≤ 1 |

molecular target: T4, HCV Core1-169; assay: SPR sandwich, capture mAb C11-14

| Binder | expected percent binding [%] |
| --- | --- |
| B16 | 1.3 |
| B17 | ≤ 1 |

molecular target: T4, HCV Core1-169; assay: SPR sandwich, capture mAb C11-3

| Binder | expected percent binding [%] |
| --- | --- |
| B16 | 1.2 |
| B17 | ≤ 1 |

molecular target: T4, HCV Core1-169; assay: SPR sandwich, capture mAb C11-9

| Binder | expected percent binding [%] |
| --- | --- |
| B16 | ≤ 1 |
| B17 | ≤ 1 |
